From US20220395553A1, “CXCR4 ANTAGONIST PEPTIDES” (COHBAR, INC., priority 2019, published 2022) come the findings set out here.

Square brackets hold non-standard residues; d marks the D form. Ends that are not written are not given here.

For the test, the target named is SNAP tagged-CXC4 receptor labeled with terbium (Tag-lite CXCR4 cells, HEK293) (UniProt P61073). The test is described as follows: HTRF competition on Tag-lite CXCR4 HEK293 cells; competitor labelled CXCL12. A general note: In TR-FRET formats the signal depends on donor and acceptor labels being close together.
Sequence of SNAP tagged-CXC4 receptor labeled with terbium (Tag-lite CXCR4 cells, HEK293) (P61073 whole entry): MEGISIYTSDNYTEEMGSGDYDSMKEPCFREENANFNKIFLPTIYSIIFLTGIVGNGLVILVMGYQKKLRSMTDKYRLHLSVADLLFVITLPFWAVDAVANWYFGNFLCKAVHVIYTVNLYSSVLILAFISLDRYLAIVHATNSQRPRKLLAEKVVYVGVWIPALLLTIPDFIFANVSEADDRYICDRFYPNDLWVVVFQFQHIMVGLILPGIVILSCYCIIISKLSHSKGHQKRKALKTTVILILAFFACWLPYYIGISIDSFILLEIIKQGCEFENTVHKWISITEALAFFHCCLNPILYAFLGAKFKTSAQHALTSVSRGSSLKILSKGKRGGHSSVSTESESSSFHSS

B1: SEQ ID NO: 57 (peptide)
peptide: LERYHHS[dA]RSSLRPYTK-NH2
modifications: N-terminus assumed
SMILES: CC(C)C[C@H](NC(=O)[C@H](CO)NC(=O)[C@H](CO)NC(=O)[C@H](CCCNC(=N)N)NC(=O)[C@@H](C)NC(=O)[C@H](CO)NC(=O)[C@H](Cc1c[nH]cn1)NC(=O)[C@H](Cc1c[nH]cn1)NC(=O)[C@H](Cc1ccc(O)cc1)NC(=O)[C@H](CCCNC(=N)N)NC(=O)[C@H](CCC(=O)O)NC(=O)[C@@H](N)CC(C)C)C(=O)N[C@@H](CCCNC(=N)N)C(=O)N1CCC[C@H]1C(=O)N[C@@H](Cc1ccc(O)cc1)C(=O)N[C@H](C(=O)N[C@@H](CCCCN)C(N)=O)[C@@H](C)O
With B1, the IC50 (usually the concentration at which inhibition is half-maximal) is 7 nM and the Percent Inhibition of CXCR4/CXCL12 Binding (400 nM peptide) was 77%.

In the case of LERYHHSVRSSLRPYTK-NH2 [SEQ ID NO: 56], the IC50 amounted to 5 nM and the Percent Inhibition of CXCR4/CXCL12 Binding (400 nM peptide) was found to be 79%.

Consider LRRYHHSVRSSLRPYTK-NH2 [SEQ ID NO: 16], for which the IC50 was 573 nM and the Percent Inhibition of CXCR4/CXCL12 Binding (400 nM peptide) is -2%.

Turning to LERYHHT[dA]RSSLRPYTK [SEQ ID NO: 40], the Percent Inhibition of CXCR4/CXCL12 Binding (400 nM peptide) amounted to 76%.
